Assay results: patent US20230242902A1, “A HIGHLY ERROR-PRONE […] R[…] FOR TARGETED CONTINUOUS EVOLUTION IN VIVO” (The Regents of the University of California, priority 2017, published 2023)

Tested on: p2-encoded leu2*
Experiment: p2 leu2* fluctuation tests in GA-Y021 (p2 mutation rate reporter strain)
Assay type: cell-based, S. cerevisiae
Conditions: for Per-base substitution rate pf p2: TP-DNAP2 variant in trans, wt TP-DNAP2 in cis, 36 replicates, (95% C.I.); for Fold increase: p2 substitution rate over no variant in trans
Excerpt: For fluctuation tests used to measure p2 mutation rates, leu2* served as a marker for detecting mutational events. leu2* is a disabled version of LEU2, where Q180 is replaced with a TAA stop codon. Q180 is a permissive site where mutation to any other codon other than TAG and TGA results in functional reversion to LEU2. These mutational events can be detected by plating scores of parallel cultures on medium lacking leucine and counting the number distribution of functional LEU2 mutants.
For TP-DNAP2 library screening, each library member was subjected to small-scale leu2* fluctuation tests with six replicates. 190 library members from each yeast library transformation were arrayed and inoculated into liquid SC medium lacking uracil and histidine, and passaged three times at 1:10,000 dilutions. mKate2 fluorescence was measured at every passage on a microplate reader (TECAN Infinite® 200 PRO, settings: λex=588, λem=633) to track p2 copy number stabilization. To perform fluctuation tests, each library member was diluted 1:10,000 into liquid SC medium buffered to pH 5.8 and lacking uracil, histidine, tryptophan, and dilutions were split into six 100 μL replicates. Cultures were grown for 48 hours at 30° C. to reach saturation. Saturated cultures were washed with 200 μL 0.9% NaCl to remove residual leucine and resuspended in 35 μL of 0.9% NaCl. 10 μL of this resuspension was spot plated onto solid SC medium buffered to pH 5.8 and lacking uracil, histidine, tryptophan and leucine. Spot plates were allowed to dry and incubated at 30° C. Colonies were counted after 5 days. Colony counts were used to calculate the expected number of LEU2 functional mutants (m), using the p0 method (Foster, 2006, Methods Enzymol, 409:195-213).
To precisely measure p1 and p2 per-base substitution mutation rates, several modifications were made to the small-scale protocol. First, 36 replicates were performed for reconfirmation of candidate TP-DNAP2 mutators, and 48 replicates for genomic and mutual orthogonality experiments. Titers were also determined for each strain after spot plating by pooling the residual volume from 4 replicates and plating dilutions on YPD. The expected number of LEU2 functional mutants (m) was determined by the Ma-Sandri-Sarkar maximum likelihood estimator (as calculated by the FALCOR tool and corrected for partial plating (Foster, 2006, Methods Enzymol, 409:195-213; Sarkar et al., 1992, Genetica, 85:173-179; Hall et al., 2009, Bioinformatics, 25:1564-1565). The mean mKate2 fluorescence was determined from 50,000 event counts on Attune™ NxT Flow Cytometer and converted to p2 copy number by using a calibration curve. To determine per-base substitution rates, the corrected m was normalized to the average cell titer, the p2 copy number, and the target size for functional leu2* reversion (2.33 bp). 95% confidence intervals were similarly scaled.
To identify error-prone TP-DNAP2s, a small library of TP-DNAP2s diversified at locations hypothesized to be responsible for DNAP fidelity was screened. […] Four distinct site-saturation mutagenesis libraries were generated, each diversifying S370, Y424, L474, or F882 in TP-DNAP2 encoded on pGA55-reTP-DNAP2. Due to unsuccessful attempts to generate a strain with a full deletion of p2-encoded TP-DNAP2 and simultaneous integration of mKate, URA3, and leu2*, each library was transformed into GA-Y021 for convenient screening. However, since GA-Y021 still encodes wt TP-DNAP2 on p2-delORF1-mUL*, p2 mutation rates measured in this format are the result of in tandem replication of p2 by wt TP-DNAP2 and each TP-DNAP2 variant encoded in trans. 6-fold coverage of each library was maintained by picking 190 yeast colonies and passaging under selection for URA3 to stabilize the copy number of p2-delORF1-mUL* in the presence of the newly introduced TP-DNAP2 variants. […]

B1: L474D: TP-DNAP2 variant (protein)
chain: MDYKDKALNDLRNVYADFDSLPLDFRQILIKDRATLLQKEDVEKKILERQEDAKKYAEYLKQSEIPERISLPNIKRHKGVSISFEETSEDMVLEPRPFIFDGLNIRCFRRETIFSLKNKILNMVKESSSFKNVSRQSVSFMYFKIFNKGKVIASTKSVNIYEDKIDERLEDLCNNFDDVLKKIIDVTYGYESLFVSETYSYVIFYAKSIYFPQPRCVNNWGNNIPNILTFDSFKLFTANKNNVSCIKQCSRFLWQKDFNTLEEMIEYKNGNICIVTPQLHINDVRDIKSFNDIRLYSESPIKTFSVIDNTITYLFYFKEHLGVIFNITKSRHDRRVTKFSPLSKFSDVKNITVCFDIESYFDPEKESNQVNIPFICCASIIYNKVIGNIVDFEGRDCVAQMIEYVVDICGELNISSVELIAHNGGGYDFHYILSSMYNPAAIKNILIRNNSFISFNFAHDGVKFSVKDSYSFLDCSLANASKAFLNEETFKKTDFPHHDLKTADDLYKVYKEWSSVNTEINHVVEKEKLLITSEHIVNFTKNDKSKTLIEWSKDYCRNDVLVLSKVWLEFKNAVEDIFNCELVDQTMTLAGLSYKLFQANMPFDVELRHPNKEDYFNMREALIGGRCISVNGIYKDVLCLDVKSLYPASMAFYDQPYGSFKRVSSRPKDELGIYYVRVTPNRNNKSNFFPIRSHNKITYNNFEESTYIAWYTNVDIDIGLSEGHNIEYIPFDSYGNIGYSWSKKGKIFEKYIKDVLYKLKIKYEKQNNKVKRNVIKIIMNSLWGKFAQKWVNFEYFIKSEDDIDFESEEAYKIWDTDFMLIKKIKESTYSSKPIQNGVFTLSWARYHMKSIWDAGAKEGAECIYSDTDSIFVHKEHFKKNAKFMLNGLKVPIIGSEVGQLELECEFDKLLCAGKKQYMGFYTYFQDGKPCIKEKKRFKGIPSNYIIPELYAHLLSGADKEAKIQFLKFRREWGSVKGYIENKTVKAT
  Per-base substitution rate pf p2: 12.2 (7.33-17.9) ×10^−10
  Fold increase: 2.0

B2: S370L: TP-DNAP2 variant (protein, listed as Kluyveromyces lactis)
chain: MNDELAFLNSQIDDYSDDIEFLRTEVFRINRYSKSIYSLMKNSSKEAIKETIEFNKYGQEIHSKIKEKEISLIEAIKLMEKKYKYLRSLNKTKDKSKKKKIHTKDIETLKTIYKTKADFDIRNFKNAETFTYENYSLLIPSEKELIDLIPEIEEDYSYYFYVSLTITGPTIFGGVTRKVPIIDTYGDINKDFYNKIKENITKVLDRVPFYEEKESEIICKKVLITLTVNKWESIDKWYKNVKSKSKKFKDFTLFLASDTSKNCVQQCVEYLGGKWNTNYSLEKMIPQQKIVTYIPLLMDIQYVQSMEDLISDFDEPNTDCKNIARLLKWNGHMGVITKIDKDVKINRIQRKRIIDVENKEVKEVFFDIELFSDETKHQIPYLICWSYLGELYYRTGKNCIKEFVEEILSYNVDIILYAWYGSGYDYQHVLPYMKSKCIKDKYIIKNNMITYGELYYENAIIYLKDPYLFILTSLDKASKAFNVINKGEFPHSIIHSWEDLNKILPNWVKIQKRMIEYKDDNKLNIYYKNIEIFENDRNYNTILENAIEYCKVDVLAMEKVWIKFKKLLEKNLNITVSVKTFTLSQLSMKIMESKLPKYVKLYVPTLEEYSKIRNAIYGGRVISKNGIYEENIVYADVVSLYPSAMKLLKHSYGKPKLVDYIDFEKHGIYRVTLLNKHDQEPKNYLNFVPRRINRKLTWEWFKIHEGWYHTYDLIIAKSEGFDIYCHEGFEYPEKDYIFNDFIDTLYSMKETHTACSCEEQPCPIRMVAKIALNGGGYGKFVQKPIDKEIYIVKRDVVAGECDKLQENENGEICIGKRLVKRPLFYNLDSENYDKMIIEKEDEPIYSTQCGISILSASRYRLYKLCKQFENIDIIYSDTDSIFVKQKSVDWELFKSKCGSELGQLDSTIDDTKNAIISKMYIGGAKMYAFEYLNNKNKLITKLHCKGVPNYMLSLNQFKYLMESPDNTIAYKFEIIRRKLVNVITKDLIKDIKQT
  Per-base substitution rate pf p2: 14.8 (9.32-21.1) ×10^−10
  Fold increase: 2.5
